Here are results for 29 molecules from patent publication US20230176070A1.

First the molecules themselves.
B1: G65 (VHH)
VHH: QVQLVESGGGLVQAGGSLRLSCATSGRTFSTYALGWFRQRPGKEREFVATIHWSDGRTLYADSVKGRFTLSRDNAQNTVYLQMNSLKPEDTAIYYCAASIYRIGSYDVSTSQGYDYWGQGTQVTVSS
B2: G66 (VHH)
VHH: QVQLVESGGGLVQAGGSLRLSCATSGRTFSTYAMGWFRQRPGKEREFVATIHWSDGRTLYTDSVKGRFTLSRDNAQNTVYLQMNSLKPEDTAVYYCAAATYRIGSYDVSTSQGYNYWGQGTQVTVSS
B3: G64 (VHH)
VHH: HVQLVESGGGLVQAGGSLRLSCKVSGTTFSNSAIGWYRQAPGNRRELVATINYGGSTNYADSGKGRFTISKDNAKNTVYLQMNSLKPEDTAVYYCKTTEWREDGYEYDVWGQGTQVTVSS
B4: G52 (VHH)
VHH: EVQLVESGGGLVQAGGSLRLSCAASGSTFSSKPIGWYRQAPGKGRDLVAAIGGGSSTFYVDSVKGRFTMSRDNAKNTVALQMNSLKPEDTAVYYCNEYLGPKVLPIGSWGQGTQVTVSS
B5: G58 (VHH)
VHH: EVQLVESGGGLVQAGGSLRLSCAGSGDTFSRYTLGWFRQAPGKEREFVAGISWSGGSTSYANSVKGRFTISRDNAKNTMYLQMNSLKPEDTAVYTCAAPGLPGTVVVGASDFYVYWGQGTQVTVSS
B6: G69 (VHH)
VHH: QVQLVESGGGLVQAGGSLRLSCVDSGRTFSSNTMGWFRQAPGKDRDFVAAINRSGVITNYADSVKGRFTISRDNAKNTVYLQLNSLKPEDTAVYYCAARAGGWPSQIPVEYDRWGQGTQVTVSS
B7: G68 (VHH)
VHH: EVQLVESGGGLVQAGGSLRLSCTASGSIFSVNVMDWYRQAPGKQREFVATITGSGATNYADSVKGRFTISRGSAKNTVYLQMNSLKPDDTAVYYCHNADYREDGYEYDNWGQGTQVTVSS
B8: G73 (VHH)
VHH: EVQLVESGGGLVQAGGSLRLSCAASGRTFSDDAMAWFRQAPGKEREFVAAISWHPENTFYADSVKGRFTISRDKTKNTEYLQMNSLKPEDTAVYYCAAGPRLEIGDYAQYKYWGQGTQVTVSS
B9: G77 (VHH)
VHH: QVQLVESGGGLVQAGGSLRLSCTASRSTFRVNPAGWYRQAPGKERELVARITSGGSTNYADSVKGRFTISRDNAKNTVYLQMNSLKPEDTAVYYCNVPYYMEDGYEHDAWGQGTQVTVSS
B10: G53 (VHH)
VHH: HVQLVESGGGLVQAGGSLRLSCVASGFTYSTYTMGWFRQAPGKEREIVAAKNWSGARIYYTESVKGRFTISRDSGSNTMYLQMDSLKPEDTAVYYCAARLTWTDTTTPTTYPYWGQGTQVTVSS
B11: G51 (VHH)
VHH: QVQLVESGGGLVQAGGSLKLSCAASGITFSINTIGWYRQAPGKQREFVAHITSDSTTYYADSVKARFTISRDSAKNTVHLQMNNLKPEDTAVYYCNVNPTWPYGGEVDYWGQGTQVTVSS
B12: G67 (VHH)
VHH: HVQLVESGGGLVQAGGSLRLSCVASGHTVSNYAMAWFRQAPGKEREFVAGISWRATLTYYRDSVKGRFTISRDNAKNTVYLQMSSLKPEDTAVYFCASDRTPYVSRGTSLVEYDYWGQGTQVTVSS
B13: G70 (VHH)
VHH: QVQLVESGGGLVQAGGSLRLSCAASGATFSINAIGWYRQAPGKQRELVAVIKSGNSINYADSVKGRFTISRDHAKNTVYLQMNNLKPEDTAVYYCHADQPPETGWGTWNDLWGQGTQVTVSS
B14: G54 (VHH)
VHH: QVQLVESGGGLVKPGESLKLSCVASGETLSSYIMGWFRQAPGKEREFVAAVSWSGNQQDYADSVKGRFTISRDNAEKTVDLQMNSLNPEDTAVYYCAGDQIGFWSSRTQAHEYEYWGQGTQVTVSS
B15: H31 (VHH)
VHH: QVQLVESGGGLVQPGGSLRLSCTPSGFRLEDYPIAWFRQAPGKEREGLSCITSGDGRTYYEESVKGRFTISRDNAQNKVYLQMNKLTPEDTAVYHCATVPSDNLCGYLHRRPFASWGQGTQVTVSS
B16: H42 (VHH)
VHH: HVQLVESGGGLVQAGGSLRLSCAASGLTFSNYAMGWFRQAPGKEREFVVAISWSGANTYYSDSVKGRFTASRDNAKKTVYLQMNSLKPEDTAVYYCAADYRGLGYSTAHEYDYWGQGTQVTVSS
B17: H23 (VHH)
VHH: DVQLVESGGGLVQAGGSLTLSCAASGRTFSSSTMGWFRRAPGKEREFVAAISGSARTTDYADSVKGRFTISRDNAKNTVYLQMISLKPEDTAIYYCARKRVVDVTTSNYELRYDYWGQGTQVTVSS
B18: H10 (VHH)
VHH: DVQLVESGGGLVQAGGSLRLSCRASGLPFGPYTMGWFRQTPGQEREFVAAITWSSMNTNYADSVKGRFTISRDSAKNTVYLQMNTLKPDDTAVYYCAADDRAVPMLGDFEDYIYWGQGTQVTVSS
B19: H37 (VHH)
VHH: QVQLVESGGGLVQAGGSLRLSCAASGLTFSNYALGWFRRAPGKERDFVAAISYSGGSTDYADSVKGRFTISRDNAKNTVYLQMNSLKPEDTAVYYCAAAYLGWGTARTAYEYWGQGTQVTVSS
B20: H38 (VHH)
VHH: HVQLVESGGGLVQAGGSLRLSCAASELTFSNYAMGWFRRAPGKERGFVAAISYSGGSTDYADSVKGRFTISRDNAKKTVYLQMNSLKPEDTAVYYCAAAYMGWGTARSAYEYWGQGTQVTVSS
B21: H33 (VHH)
VHH: HVQLVESGGGLVQAGGSLRLSCAASGRTLSSYDMGWFRQPPGKEREFVAAITRHDFNTFYRDSVKGRFTISRDNAKNTVYLQMNSLKSEDTAVYFCAARLDPIFASNSEYAPLYDYWGQGTQVTVSS
B22: H34 (VHH)
VHH: QVQLVESGGGLVQAGGSLRLSCAASGRTLSSYDMGWFRKAPGKEREFVAAITRHDYNTYYRDSVKGRFTISRDNAKNTVYLQMNSLKSEDTAVYFCAARLDPIFASNSAYSNLYDYWGQGTQVTVSS
B23: H40 (VHH)
VHH: EVQLVESGGGLVQAGASLRLSCAASGGTFSSYIMGWFRQAPGKEREFVAAISWSGRSTHYADSVKGRFAISRDNDRVYLQMNSLKPEDTAVYSCAADPNYTWRDDRYYREEGYTYWGQGTQVTVSS
B24: H32 (VHH)
VHH: HVQLVESGGGLVQAGGSLRLSCAASDTIDNYARAWFRQAPGKEREFVAAITWTFGTPYYTDSVKGRFTISRDDAKNTVYLQMNSLKPEDTAVYYCAASLYLPVRTASGGYRLDTDRPQYWGQGTQVTVSS
B25: H39 (VHH)
VHH: QVQLVESGGGLVQAGVSLRLSCAASERTFSSYIMGWFRQAPGKEREFIAAISWSGGNTDYAGSVQGRFTISRDNAQNTVYLQMNSLEPEDTAVYYCAADATHSWSYGSRWYDRNYNYWGQGTQVTVSS
B26: H44 (VHH)
VHH: EVQLVESGGGLAQAGGSLRLSCAASGGTFSNSCMGWFRQAPGMEREFVAIIRSTGHTTYADSVEGRFTVSRDIAKNTVYLEMNSLKPEDTAVYSCAAGASDYGCYHTSGISYWGQGTQVTVSS
B27: H13 (VHH)
VHH: HVQLVESGGGLVQAGGSLRLSCAASGRTFSTYHMGWFRQAPGKAREFVAAITGSGGITYYADSVKGRFTISRDNAKNTVYLQMNSLKPEDTAVYYCAADTRAYGLVPSTTSSRYNYWGQGTQVTVSS
B28: P2 (VHH)
VHH: DVQLVESGGGLVQAGGSLRLSCAASGHTFSSYTMGWFHQAPGKEREFVAEISGTGGNTGYADSVKGRFTISRDNAKNTVYLQMNSLKPEDTAVYYCAAVIGSPTDSSDYRSSLDYDYWGQGTQVTVSE
B29: NbPDZ P10 (VHH)
VHH: DVQLVESGGGLVQAGGSLRLSCTASGRTFSTYTMAWFRQAPGKEREFVAAITWSGTYYADSVKGRFTISRDNAKNTMYLQMNSLKPEDTAVYICAAVIGSTVDSYSPSDPLEYDYWGQGTQVTVSE

One assay deals with glutathione S-transferase [GST: P08515]. Description: indirect ELISA, GST coated. In general terms: ELISA stands for enzyme-linked immunosorbent assay.
Sequence of glutathione S-transferase [GST: P08515] (P08515 whole entry): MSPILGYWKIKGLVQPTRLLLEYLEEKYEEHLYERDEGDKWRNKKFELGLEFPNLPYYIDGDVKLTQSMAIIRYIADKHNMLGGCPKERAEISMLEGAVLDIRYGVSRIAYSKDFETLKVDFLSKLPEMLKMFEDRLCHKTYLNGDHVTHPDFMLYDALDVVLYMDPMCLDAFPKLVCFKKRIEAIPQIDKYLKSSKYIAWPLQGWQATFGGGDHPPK
B1: the ELISA affinity (LogIC50 (oD450nm)) came to 3.97.
Molecule B2 yielded an ELISA affinity (LogIC50 (oD450nm)) of 4.29.
Consider B3, for which the ELISA affinity (LogIC50 (oD450nm)) is 5.68.
On to B4, for which the ELISA affinity (LogIC50 (oD450nm)) stood at 1.
The same measure, in the same setting: as for B5, the figure is 1.54; as for B6, 3.69; as for B7, 1.07.
B8: the ELISA affinity (LogIC50 (oD450nm)) was 0.955.
As to B9, the ELISA affinity (LogIC50 (oD450nm)) amounted to 6.01.
B10: the ELISA affinity (LogIC50 (oD450nm)) came to 5.37.
In turn, B11 showed an ELISA affinity (LogIC50 (oD450nm)) of 4.45.
The same measure, in the same setting: as for B12, the figure is 3.6; as for B13, 1.75.
For B14, the ELISA affinity (LogIC50 (oD450nm)) came to 1.54.

In the next assay the target is human serum albumin (human) (UniProt P02768). The assay is described as follows: indirect ELISA, HSA coated.
Sequence of human serum albumin (human) (P02768 25-609 limits assumed): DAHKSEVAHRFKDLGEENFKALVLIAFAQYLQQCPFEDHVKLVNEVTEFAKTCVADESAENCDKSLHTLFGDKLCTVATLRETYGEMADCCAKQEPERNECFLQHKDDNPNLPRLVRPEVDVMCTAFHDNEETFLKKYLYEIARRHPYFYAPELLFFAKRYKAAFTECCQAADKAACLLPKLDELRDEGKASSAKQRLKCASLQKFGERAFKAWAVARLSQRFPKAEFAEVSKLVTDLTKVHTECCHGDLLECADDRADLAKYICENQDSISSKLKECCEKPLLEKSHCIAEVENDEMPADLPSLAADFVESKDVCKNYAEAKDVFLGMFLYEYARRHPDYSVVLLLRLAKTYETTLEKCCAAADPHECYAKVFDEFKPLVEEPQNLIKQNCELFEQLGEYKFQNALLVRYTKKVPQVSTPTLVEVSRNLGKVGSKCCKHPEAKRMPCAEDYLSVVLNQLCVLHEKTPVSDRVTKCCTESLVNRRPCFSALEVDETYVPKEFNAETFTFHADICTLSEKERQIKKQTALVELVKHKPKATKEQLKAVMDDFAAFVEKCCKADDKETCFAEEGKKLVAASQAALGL
As for B15, the ELISA affinity (LogIC50 (oD450nm)) amounted to 1.07.
B16 came in with an ELISA affinity (LogIC50 (oD450nm)) of 4.92.
In turn, B17 gave an ELISA affinity (LogIC50 (oD450nm)) of 1.62.
B18 yielded an ELISA affinity (LogIC50 (oD450nm)) of 1.46.
As to B19, the ELISA affinity (LogIC50 (oD450nm)) turned out to be 1.49.
Regarding B20, the ELISA affinity (LogIC50 (oD450nm)) was 2.44.
Turning to B21, the ELISA affinity (LogIC50 (oD450nm)) was 5.03.
The molecule B22 returned an ELISA affinity (LogIC50 (oD450nm)) of 5.07.
For B23, the ELISA affinity (LogIC50 (oD450nm)) amounted to 3.16.
Turning to B24, the ELISA affinity (LogIC50 (oD450nm)) worked out at 5.33.
B25 gave an ELISA affinity (LogIC50 (oD450nm)) of 5.2.
The molecule B26 gave an ELISA affinity (LogIC50 (oD450nm)) of 5.62.
On the same count and under the same terms, as for B27, the figure is 1.96.

In another assay the target is GST fusion PDZ mutant protein (R46E:K48D) (mammalian (so in the source)) (UniProt P57105). Description: indirect ELISA, PDZ R46E:K48D coated.
Take B28: the Mutant ELISA affinity (LogIC50 (oD450nm)) worked out at 4.35.
Still for that read-out and setting: as for B29, the figure is 3.83.

The next assay addresses T1, PDZ domain of mitochondrial outer membrane protein 25 (mammalian (so in the source)) (UniProt P57105).
T1 sequence (looked up): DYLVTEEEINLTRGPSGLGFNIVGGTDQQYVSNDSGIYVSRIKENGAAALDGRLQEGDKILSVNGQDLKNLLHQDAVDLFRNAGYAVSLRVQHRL
Description: indirect ELISA, wild type PDZ coated.
The molecule B28 registered a WT ELISA affinity (LogIC50 (oD450nm)) of 5.44.

For the next assay, the target named is GST fusion PDZ mutant protein (R46E:K48D) (mammalian (so in the source)) (UniProt P57105). The assay is described as follows: ELISA, wild type PDZ against PDZ R46E:K48D.
B28 showed an Affinity fold change of 12.1 fold.
B29 gave an Affinity fold change of 23.5 fold.
